Target: Mus musculus inward rectifier K+ (Kir) channel 3.1 - Paraburkholderia xenovorans KirBac1.3 chimera (Mus musculus | Paraburkholderia xenovorans (Burkholderia xenovorans LB400)) (UniProt P63250)
Assay: SEC; HiLoad 16/600 Superdex 200 in 20 mM HEPES pH 7.5, 150 mM KCl, 5 mM DDM, 2 mM DTT, 1 mM EDTA, 0.02% NaN3; protein loaded at ~3 mg/mL; tetramer fractions collected

Mus musculus inward rectifier K+ (Kir) channel 3.1 - Paraburkholderia xenovorans KirBac1.3 chimera (from UniProt P63250 181-371; P63250 181-371)
stoichiometry N: 4

From article PMC7175280
